Measured values from patent US7919526B2, “Structured triglycerides and emulsions comprising same” (HTL High-Tech Lipids Ltd., priority 2005, dated 2011).

B1: Porcine pancreas lipase: lipase from porcine pancreas (Sigma), crude or immobilized (protein, UniProt P00591 1-450, looked up)
Pancreatic triacylglycerol …: SEVCFPRLGCFSDDAPWAGIVQRPLKILPWSPKDVDTRFLLYTNQNQNNYQELVADPSTITNSNFRMDRKTRFIIHGFIDKGEEDWLSNICKNLFKVESVNCICVDWKGGSRTGYTQASQNIRIVGAEVAYFVEVLKSSLGYSPSNVHVIGHSLGSHAAGEAGRRTNGTIERITGLDPAEPCFQGTPELVRLDPSDAKFVDVIHTDAAPIIPNLGFGMSQTVGHLDFFPNGGKQMPGCQKNILSQIVDIDGIWEGTRDFVACNHLRSYKYYADSILNPDGFAGFPCDSYNVFTANKCFPCPSEGCPQMGHYADRFPGKTNGVSQVFYLNTGDASNFARWRYKVSVTLSGKKVTGHILVSLFGNEGNSRQYEIYKGTLQPDNTHSDEFDSDVEVGDLQKVKFIWYNNNVINPTLPRVGASKITVERNDGKVYDFCSQETVREEVLLTLNPC
modifications: crude or immobilized
B2: Mucor miehei: lipase of Mucor miehei origin (Sigma), crude or immobilized (protein, UniProt P19515 95-363, looked up)
Lipase: SIDGGIRAATSQEINELTYYTTLSANSYCRTVIPGATWDCIHCDATEDLKIIKTWSTLIYDTNAMVARGDSEKTIYIVFRGSSSIRNWIADLTFVPVSYPPVSGTKVHKGFLDSYGEVQNELVATVLDQFKQYPSYKVAVTGHSLGGATALLCALDLYQREEGLSSSNLFLYTQGQPRVGDPAFANYVVSTGIPYRRTVNERDIVPHLPPAAFGFLHAGEEYWITDNSPETVQVCTSDLETSDCSNSIVPFTSVLDHLSYFGINTGLCT
modifications: crude or immobilized
B3: Rhizomucor miehei: lipase of Rhizomucor miehei origin (Sigma), crude or immobilized (protein, UniProt P19515 95-363, looked up)
Lipase: B2 Lipase
modifications: crude or immobilized

Experiments:
Format in all cases: biochemical
[1] = acidolysis activity of lipases using MCT and caproic acid; details: for Conversion % (24 h): MCT (1 gr), caproic acid (0.23 gr), 500 mg enzyme preparation, 50° C., solvent-free; for acidolysis activity in words, Caproic acid and MCT: summary of Table 1
Method: (§7) The acidolysis activity of crude enzymes and enzymes adapted for synthetic reactions was assayed by adding an enzyme preparation (500 mg) into a 10 ml reaction solution containing MCT and a free fatty acid where the molar ratio between both substrates was 1:1. The reaction mixture was shaken for 16 hours at a temperature of 50° C. Samples (0.1 ml) were taken from the reaction mixture and mixed with 10 ml solvent comprised of acetone-dichloromethane at a ratio of 90:10. The samples were filtered through a Millipore filter (pore size 0.45 μm) and then injected to the HPLC.
(§8) The reaction progress was followed by analyzing the triglyceride composition in the reaction medium before and after the enzymatic reaction using an HPLC equipped with an ELSD (Evaporative light Scattering Detector). The HPLC was equipped with a LiChrosorb CH-18 Super (250×4 mm, 5 μm, MERCK). The HPLC running conditions were as follows: mobile phase A, Acetonitrile/Dichloromethane/Acetone (80/15/5); mobile phase B: Acetone/Dichloromethane/Acetone (20/60/20). The flow rate was 1 ml/min and the gradient was 0 to 100% B for 30 min.
(§9) The substrate conversion was calculated as follows: Conversion %=100×(Sum of area of the 4 peaks representing the MCT at time zero)−(Sum of area of the 4 peaks representing the MCT after 16 h reaction time)per Sum of area of the 4 peaks representing the MCT at time zero. The MCT conversion (%) was used as an indicative parameter for the efficiency of enzyme activity to obtain the desired product.

[2] = acidolysis activity of lipases using MCT and caprylic acid; details: for Conversion % (24 h): MCT (1 gr), caprylic acid (0.28 gr), 500 mg enzyme preparation, 50° C., solvent-free; for acidolysis activity in words, Caprylic acid and MCT: summary of Table 2
Method: (§1) The acidolysis activity of crude enzymes and enzymes adapted for synthetic reactions was assayed by adding an enzyme preparation (500 mg) into a 10 ml reaction solution containing MCT and a free fatty acid where the molar ratio between both substrates was 1:1. […] Samples (0.1 ml) were taken from the reaction mixture and mixed with 10 ml solvent comprised of acetone-dichloromethane at a ratio of 90:10. The samples were filtered through a Millipore filter (pore size 0.45 μm) and then injected to the HPLC.
(§2) The reaction progress was followed by analyzing the triglyceride composition in the reaction medium before and after the enzymatic reaction using an HPLC equipped with an ELSD (Evaporative light Scattering Detector). The HPLC was equipped with a LiChrosorb CH-18 Super (250×4 mm, 5 μm, MERCK). The HPLC running conditions were as follows: mobile phase A, Acetonitrile/Dichloromethane/Acetone (80/15/5); mobile phase B: […] (20/60/20). The flow rate was 1 ml/min and the gradient was 0 to 100% B for 30 min.
(§3) The substrate conversion was calculated as follows: Conversion %=100×(Sum of area of the 4 peaks representing the MCT at time zero)−([…])per Sum of area of the 4 peaks representing the MCT at time zero. The MCT conversion (%) was used as an indicative parameter for the efficiency of enzyme activity to obtain the desired product. Results
(§4) Tables 1-12 show the acidolysis activity of various lipases, which were screened for their ability to catalyze the reaction between MCT and free fatty acids in a solvent-free system according to the enzymatically catalyzed reaction presented in FIG. 1. All lipases were used in their crude form as supplied by the manufacturer (Sigma) or immobilized on an insoluble matrix. Immobilized lipases were activated before their use in the acidolysis reaction containing MCT and a long-chain fatty acid by pretreatment with a biphase system containing 50% triglyceride oil such as olive oil, soy oil and the like and 50% water. This pretreatment lead to the activation of the immobilized enzymes for synthetic applications.
(§5) A typical enzyme activation and immobilization procedure used in this example is as follows: 1 g of a crude lipase preparation was dissolved in a 1 L of phosphate buffer solution of an appropriate pH according to the recommendation of the enzyme's manufacturer. 10 g of support matrix (silica, celite, an ion-exchange resin such as DUOLITE® A56, DUOLITE® A7, DUOLITE® XAD761, or Amberlite™ XAD16) were added into the stirred enzyme solution. The slurry was shaken for 8 hours at a temperature of 10° C. Hundred ml of cold acetone was optionally added into the stirred slurry in order to enhance the enzyme immobilization on the matrix surface. The immobilized enzyme was filtered of from the mixture and then freeze-dried or used wet for the following step. One g of freeze-dried immobilized lipase (water content of less than 2 weight %) or wet immobilized lipase (water content of approx. 20%) was added into a biphase system comprised of 5 g olive oil and 2 g buffer solution of pH7 at room temperature. The mixture was stirred for 10 min. The immobilized lipases was filtered of from the mixture, washed with cold acetone, dried in a desiccator and then used for the acidolysis reaction between MCT and a fatty acyl donor.
(§6) Reaction conditions: MCT (1 gr), caproic acid (0.23 gr), and 500 mg enzyme preparation. The reaction mixture was shaken and thermostated at 50° C. for 16 h. […]

[3] = acidolysis activity of lipases using MCT and capric acid; details: MCT (1 gr), capric acid (0.34 gr), 500 mg enzyme preparation, 50° C., solvent-free
Method: as §1, §2, §3
as §4, with “applications. […]” for “applications.”

[4] = acidolysis activity of lipases using MCT and lauric acid; details: MCT (1 gr), lauric acid (0.4 gr), 500 mg enzyme preparation, 50° C., solvent-free
Method: as §7, §8, §9
Reaction conditions as described in Table 1, with one modification, namely lauric acid (0.4 gr) was used as the fatty acid.

[5] = acidolysis activity of lipases using MCT and palmitic acid; details: MCT (1 gr), palmitic acid (0.51 gr), 500 mg enzyme preparation, 50° C., solvent-free
Method: as §1, §2, §3
as §4, with “applications. […]” for “applications.”

[6] = acidolysis activity of lipases using MCT and stearic acid; details: MCT (1 gr), stearic acid (0.56 gr), 500 mg enzyme preparation, 50° C., solvent-free
Method: as §7, §8, §9
All lipases were used in their crude form as supplied by the manufacturer (Sigma) or immobilized on an insoluble matrix. Immobilized lipases were activated before their use in the acidolysis reaction containing MCT and a long-chain fatty acid by pretreatment with a biphase system containing 50% triglyceride oil such as olive oil, soy oil and the like and 50% water. […]

[7] = acidolysis activity of lipases using MCT and oleic acid; details: MCT (1 gr), oleic acid (0.56 gr), 500 mg enzyme preparation, 50° C., solvent-free
Method: as §7, §8, §9
(§10) All lipases were used in their crude form as supplied by the manufacturer (Sigma) or immobilized on an insoluble matrix. Immobilized lipases were activated before their use in the acidolysis reaction containing MCT and a long-chain fatty acid by pretreatment with a biphase system containing 50% triglyceride oil such as olive oil, soy oil and the like and 50% water. This pretreatment lead to the activation of the immobilized enzymes for synthetic applications. […]

[8] = acidolysis activity of lipases using MCT and linoleic acid; details: MCT (1 gr), linoleic acid (0.55 gr), 500 mg enzyme preparation, 50° C., solvent-free
Method: as §1, §2, §3
as §4, with “applications. […]” for “applications.”

[9] = acidolysis activity of lipases using MCT and alpha-linolenic acid; details: MCT (1 gr), alpha-linolenic acid (0.55 gr), 500 mg enzyme preparation, 50° C., solvent-free
Method: as §7, §8, §9, §10

[10] = acidolysis activity of lipases using MCT and arachidonic acid; details: for Conversion % (24 h): MCT (1 gr), arachidonic acid (0.6 gr), 500 mg enzyme preparation, 50° C., solvent-free
Method: as §1, §2, §3, §4
A typical enzyme activation and immobilization procedure used in this example is as follows: 1 g of a crude lipase preparation was dissolved in a 1 L of phosphate buffer solution of an appropriate pH according to the recommendation of the enzyme's manufacturer. 10 g of support matrix (silica, celite, an ion-exchange resin such as DUOLITE® A56, DUOLITE® A7, DUOLITE® XAD761, or Amberlite™ XAD16) were added into the stirred enzyme solution. The slurry was shaken for 8 hours at a temperature of 10° C. Hundred ml of cold acetone was optionally added into the stirred slurry in order to enhance the enzyme immobilization on the matrix surface. […]

[11] = acidolysis activity of lipases using MCT and EPA; details: for Conversion % (24 h): MCT (1 gr), EPA (0.6 gr), 500 mg enzyme preparation, 50° C., solvent-free; for efficiency of incorporation of EPA into MCT, in words: summary of Table 11
Method: as §1, §2, §3, §4, §5, §6

[12] = acidolysis activity of lipases using MCT and DHA; details: MCT (1 gr), DHA (0.65 gr), 500 mg enzyme preparation, 50° C., solvent-free
Method: as §1, §2, §3
as §4, with “applications. […]” for “applications.”

| Molecule | Conversion % (24 h) [1] | Conversion % (24 h) [2] | Conversion % [3] | Conversion % (24 h) [4] | Conversion % [5] | Conversion % (24 h) [6] | Conversion % (24 h) [7] | Conversion % [8] | Conversion % (24 h) [9] | Conversion % (24 h) [10] | Conversion % (24 h) [11] | Conversion % (24 h) [12] | acidolysis activity in words, Caproic acid and MCT [1] | acidolysis activity in words, Caprylic acid and MCT [2] | efficiency of incorporation of EPA into MCT, in words [11] | efficiency of incorporation of ARA into MCT, in words ([10]; summary of Table 10) |
| --- | --- | --- | --- | --- | --- | --- | --- | --- | --- | --- | --- | --- | --- | --- | --- | --- |
| B1 | 6% | 5% | 5% | 6% | 1% | 5% | 4% | 5% | 6% | 2% | 3% | 5% |  |  |  |  |
| B2 | 35% | 42% | 39% | 38% | 41% | 42% | 40% | 41% | 31% | 3% | 25% | 27% | preferred sources | reasonable acidolysis activity | the most efficient enzymes |  |
| B3 | 31% | 37% | 37% | 39% | 33% | 37% | 43% | 35% | 39% | 15% | 30% | 16% | preferred sources | reasonable acidolysis activity | the most efficient enzymes | among the most efficient enzymes |
